Assay: yeast display, Sf9 membrane polyspecificity reagent, FACS + sequencing; frameworks hold sequencing errors
Outline: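 A synthetic nanobody library was expressed on Saccharomyces cerevisiae BJ5465 by galactose induction for 36–48 hours. The library was stained for 1 hour at 4 °C with 10% biotinylated, detergent-solubilized Sf9 membrane reagent and enriched with streptavidin microbeads before FACS. Low and high (top ~1%) gates were set on anti-HA fluorescence for expression and streptavidin fluorescence for reagent binding, and each polyreactivity label reflects the gate of origin.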

## QVQLVESGGGLVQAGGSLRLSCAASGRIFGVYAMGWYRQAPGKERELVAAIDSSDASTYYADSVKGRFTISRDNAKNTVYLQMNSLKPEDTAVYYCAADNPAAVYGYDYWGQGTQVTVSS
  polyreactivity (PSR sort gate): low polyreactivity

## QVQLVESGGGLVQAGGSLRLSCAASGLTYAYNAMGGSRQAPGKERELVAAISKRGGSTYYADSVKGRFTISRDNAKNTVYLQMNSLKPEDTAVYYCAAGTYAIHDYWGLGTQVTVSS
  polyreactivity (PSR sort gate): high polyreactivity

## QVQLVESGGGLVQAGGSLRLSCASSGITFDYYDMGWYRQPPGKERELVAAISTGGGRTYYADSVKGRFTFSRDNAKNTVYLQMNSLKPEDTAVYYCAATYTRVPNRFYYWGQGTQVTVSS
  polyreactivity (PSR sort gate): high polyreactivity

## QVQLVESGGGLVQAGGSLRLSCAASGSTFVKYVMGWYRQAPGKERELVAAISWSGGSTYYADSVKGRFTISRDNAKNTVYLQMNSLKPEDTAVYYCAAVNWYDSYAKYYWGQGTQVTVSS
  polyreactivity (PSR sort gate): high polyreactivity

## QVQLVESGGGLVQAGGSLRLSCAASGYIFDAYAMGWYRQAPGKERELVAAIDIGGSTYYADSVKGRFTISRDNAKNTVYLQMNSLKPEDTAVYYCAEWFYFDQWDYAREYWGQGTQVTVSS
  polyreactivity (PSR sort gate): low polyreactivity

## QVQLVESGGGLVQAGGSLRLSCAASGTTFRFYAMGLYRQAPGKERELDAAINGSGGSTYYADSVKGRFTISRDNAKNTVYFQMISMKPEDTAVYYCAADGVPDALDRDYWGQGTQVNVSS
  polyreactivity (PSR sort gate): low polyreactivity

## QVQLVESGGGLVQAGGSLRLSCAASGFTFFMYAMGGDRQAPGKEREFVASITGSGGSTYYADSVKGRFTISRDTAKNSVYLQMNSLKPEDTAVYYCNKLSYGRSGYWGQGTQVTVSS
  polyreactivity (PSR sort gate): high polyreactivity

## QVQLVESGGGLVHAGGSLRLSCAASGSIFGFYTMGWYRQAPGKERELVAAITWSGGRTYYADSVKGRFTISRDNAKNTVYLQMNSLKPEDTAVYYCNRDGRSRWYYASAGYNYWGQGTQVTVSS
  polyreactivity (PSR sort gate): high polyreactivity

## QVQLVESGGGLVQAGGSLRLSCAASGRTFYVYAMGWYRQAPGKERELVAAITYTGGDTYYADSVKGRFTISRDNAKNTVYLQMNSLKPEDTAVYYCAADFGPYYRFDYWGQGTQVTVSS
  polyreactivity (PSR sort gate): low polyreactivity

## QVQLVDSGGGIVQAGGSLRLSCAASGLTFSDYAMGWYRQAPGKEREFVAAITRNGGSTRYADSVKGRFTISRDNAKNTVYLQMNSLKPEDTAVDYCATDVGFGSKQRPHRPGYGYWGQGTQVTVSS
  polyreactivity (PSR sort gate): low polyreactivity

## QVQLVESGGGLVQAGGSLRLSCAASGSIFPFYAMGWYRQAPGKERELVAAINYSAGSTYYADSVKGRFTISRDNAKYTVYLQMNSLKPEDTAVYYCAKEVSAYEMDYWGQGTQVTVSS
  polyreactivity (PSR sort gate): low polyreactivity

## QVKLVESGGGLVQAGGSLRLSCAASGFTFRRYAMGWYRQAPGKERELVAGITSGGSTYYADSVKGRFTISRDNAKNTVYLQMNSLKPEDTAVYYCNTKVISRTSERRGNGFTRYDYWGQGTQVTVSS
  polyreactivity (PSR sort gate): low polyreactivity

## QVQLVESGGGLVQAGGSLRLSCAASGSTFSYYTMGWYRQAPGKERELVADIDSGDDTYYADSVKGRFTISRDNAKNTVYLQMNSLKPEDTAVYYCATEFNRPHFTVRVRFKYYYWGQGTQVTVSS
  polyreactivity (PSR sort gate): low polyreactivity

## QVQLVESWGGLVQAGGSLRLSCADSGYTFYTNAMGWYREAPGKERELVAAISIGGNTNYADSVKGRFTISRDNAKNTVYLQMNSLKPEDTAVYYCAKAWSGISSRDYDLDYWGQGTQVTVSS
  polyreactivity (PSR sort gate): low polyreactivity

## QVQLVESGGRLVQAGGSLRLSCAASGSTIAYNAMGWYIQAPGKERELVAANSKGGGSTYYADSVKGRFTISRDNAQNTVYLAMNSLKPAETAVYYCAAVSGYSTGGSRYRYNYWGQGTQVTVSS
  polyreactivity (PSR sort gate): high polyreactivity

## QVQLVESGGGLVQAGGSLRLSCGASGLTFPLYAMGWYRQAPGKERELVAAITFSSGSTRYADSVKGRFTISRDNAKNTGSFQMNSLKPEDTALYYCAAVWYTYRTGPWYDYWGQGTQVTVSS
  polyreactivity (PSR sort gate): high polyreactivity

## QVQLVESGGGLVQAGGSLRLSCAASGSIFGYYTMGWYRQAPGKERELVAAITSGGSTHYADSVKGRFTISRDNAKKTGYLQMNSLKPEDTAVYYCAKVSYYPWRYDYWGQGTQVTVSS
  polyreactivity (PSR sort gate): low polyreactivity

## QVQLVESAGGLVQAGGSLRLSCAASGLTQASYAMGWYRQAPGKERELVAAISRRSGRTYYADSVKGRFTISRDNAKNTVYLQMNSLKPVDTAVYYCNRGYTAQVYTEFDYWGQGTQVTVSS
  polyreactivity (PSR sort gate): low polyreactivity

## QVQLVESGGGLVQAGGSLSLSCAASGFTITSYAMGWYRQAPGKERELVAAINSGGSTNYADSVKGRFTISRDNAKNTVYLQMNSLIPEDNAVYYCAAKRRSYRITYVGVGYKYGYWGLGTQVTVSS
  polyreactivity (PSR sort gate): high polyreactivity

## QVQLVESGGGLDQAGRSLRLSCAASGFIFYYNAMGWYRQAPGKQRELVAAISSGGSTNYADSVKGRFTISRDNAKNTVYLQMNSLQPEDTAVYYCAKRPTGGYKYYYTTSKYDYWGQGTQVTVSS
  polyreactivity (PSR sort gate): low polyreactivity

## QVQLVESGGGLVQAGGTLRLSCAASGRTFTYYAMGWSRQAPGKEREIVSAISSTGTSTYYADSVKGRFTISRDNAKNTVYLQMNSLKPEDTAVYYCNARVATYRLHSKFYYWGQGTQVTVSS
  polyreactivity (PSR sort gate): high polyreactivity

## QVQLVESGGGLVQAGGSLRLSCAASGFTFYRYTMGWYRQAPGIYRELVAAISSGDSTYYADSVKGRFTISRDNAKNTVYLQMNSLKPEDTAVYYCAARQYSRGAIVYYWGQGTQVTVSS
  polyreactivity (PSR sort gate): high polyreactivity

## QVQLVESGGGLVQAGGSLRLSCAASGFTFYSYAMGWYRQAPGKERELVAAITRSGGSTRYADSVKGRFTISRDNAKNTVYLQMNSLKPEDTAVYYCAARFVRNYVYKYNYWGQGTQVTVSS
  polyreactivity (PSR sort gate): high polyreactivity

## QVQLVESGGGLVQAGGSLRLSCAASGRTYTFNTMGLSRQAPGKEREWVAAIDGDGTTNYADSVKGRFTISRDNAKNTVYLQMNSLKPEDTAVYYCAADFLYSFWYEPTFDYWGQGTQVTVSS
  polyreactivity (PSR sort gate): low polyreactivity

## QVQLVESGGALVQAGGSLRLSCAASGSIFCYYAMGWYRQAPGKERELVAVINSGGRTNYADSVKGRFTISRDNAKNTVYLQMNSLKPEDTEVYYCAAQGYFVDRAGRYYRGDYWGQGTQVTVSS
  polyreactivity (PSR sort gate): high polyreactivity

## QVQLVESGGGLVHAGGFLRLSCAASGRIFRWNAMGWYRQAPGKERELVAAISWNGGRTYYADSVKGRFTISRDNAKNRVYFQMNSLKPEDTAVYYCAAPHSVPDLHSGDYWGQGTQVTVSS
  polyreactivity (PSR sort gate): low polyreactivity

## QVQLVESGGGLVQAGGSLRLSCAASGFIITSYAMGWYRQAPGKERELVATISSSGGTTYYADSVKGRFTISRDTAKNTVYLQMNSLKPEDTAVYYCAKDAFGWGRVYYYRSGYWGQGTQVTVSS
  polyreactivity (PSR sort gate): high polyreactivity

## QVQLVESGGGLVQAGGSLRLSCAASGLIFYPNGMGWYRQAPGKERELVAAITYSDGSTYYADSVKGRCTISRDNAKNTVYLQMNSLKPEDTAVYYCTARWGYRRGYWGQGTQVTVSS
  polyreactivity (PSR sort gate): high polyreactivity

## QVQLVESGGGLVQAGGSLRLSCAASGSTFSRYAMGWYRQAPGKERELVAAITASGGSTYYADSVKGRFTISRDNAKNTVYLQMNRLKPEDTAVYYCAASYQVRYDYWGQGTQVTVSS
  polyreactivity (PSR sort gate): high polyreactivity

## QVQLVESRGGIVQAGGSLRLSCAASGSIFEQYAMGLYRQAPGKERELVAAISKRGTSTNYADSVKGRVTISRDNAKNTVYLQMNSLKPEDTAVYYCNADSRHRRNYDYWGQGTHVTVSS
  polyreactivity (PSR sort gate): high polyreactivity

## QVQLVESGGGLVQAGGSLRLSCAASGSIFYGYAMGWYRQAPGKERELVAAISRRGGSTYYADSVKGRFTISRDIAKNTVDLQMNSLKPEDTAVYYCAAVGLWYEYYYWGQGTQVTVSS
  polyreactivity (PSR sort gate): high polyreactivity

## QVQLVESGGGLVQAGGSLRLSCAASGRIFWSYPMGWYRQAPGKERELVAAITWRTGRTYYADSVKGRFTISRDNAKNTVYLQMNSLKPEDTAVYYCAAEGYLWGQSYNGLNYDSWGQGTQVTVSS
  polyreactivity (PSR sort gate): low polyreactivity

## QVQLVESGVGLVQAGGSLRLSCAASGRIFYPYAMGWYRQAPGKERELDAVINGSGGSTYYADSVKGRFTISRDYAKNTVYLQMNSLKPEDTAVYYCARVWSRRYGGWYRNYYWGQGTQVTVSS
  polyreactivity (PSR sort gate): high polyreactivity

## QVQLVESGGGLVQAGGSIRLSCAASGSIFYHNAMGWYRPAPGKERELVAAITWSGSTTYYADSVKGRFTISRDNGKNTVYLQMNSLKPEDTAVYYCNAGNRHGHYDYWGQGTQVTVSS
  polyreactivity (PSR sort gate): low polyreactivity

## QVQLVESGGGLVQAGGSLRLSCAASGSTFLYYAMGWYRQAPGKERELVAVISWSCVSTYYADSVKGRFTISRDNAKYTVYLQMNSLKPEDTAVSYCAADWDWRFHRMNYWGQGTQVTVSS
  polyreactivity (PSR sort gate): low polyreactivity

## QVQLVESGGGLVQAGGSLRLSCAASGRIFESKAMGWYRQAPGKERELVAAISVNGASTSYADSVKGRFTISRDNAKNTVYLQMNSLKPEDTAVYYCAARRGKGYYYWGQGTQVTVSS
  polyreactivity (PSR sort gate): high polyreactivity

## QVQLLDSGGGLVQAGGSLRLSCAASGSTISRNAMGWYRQAPGKERELVAAITSKGDSSYYADSVKGRFTISRDNAKNTVYLQMNSLKPEDTAVYYCAKDGVPAQDIGMDYWGQGTQVTVSS
  polyreactivity (PSR sort gate): low polyreactivity

## QVQLVESGGGLVQAGGSLRLSCAASGSTFYAYAMGWYRQAPGKERELVAAIRISGTSTYYADSVKGRFTISRDNAKNTVYLQMNSLKPEDSAVYYCNTLATYVAHNDYWGQGTQVTVSS
  polyreactivity (PSR sort gate): high polyreactivity

## QVQLVESGGGLVQAGGSLRLSCAASGFIFRVNAMGWYRQAPGKERELVAAISRRGGSTYYADSVKGRFTISRDNAKNTVYLQMNSLKPEDTAVYYCAVKGASYPAYRGYDYWGQGTQVTVSS
  polyreactivity (PSR sort gate): high polyreactivity

## QVQLVESGGGLVQAGGSLRLSCAASGSSRYAMGWYTPAPGKERELVAVITLSGGITYADSVKGRFTISRDNAKNTVYLQMKSLKPEDTAVYYCNADYGDWPTGGDYWGQGTQVTVSS
  polyreactivity (PSR sort gate): low polyreactivity

## QVQLVESGGGLVQAGRSLRLSSAASGSTFYYNPMGWYRQAPGKERELVAAISGGDSTYYADSVKGRFTISRDNAKNTVYLQMNSMKPEDTAVYYCAAASRRRSDGRRYGYWGQGTQVTVSS
  polyreactivity (PSR sort gate): high polyreactivity

## QVQLVESGGGLVQAGGSLRLSCAASGSIFGTYAMGWYRQAPGKEREFVAAISWSDGSTYYADSVKGRFTISRDNAKNTVYLQMNSLIPEDTAVYYCAVRRVGSIYIDRYIYVVADYDYWGQGTQVTVSS
  polyreactivity (PSR sort gate): low polyreactivity

## QVQLVESGGGLVQAGGSLRLSCAASGRIFSLYAMGWYRQAPGKERELVAAITWSSGSTYYADSVKGRFTISRDNAKNTVYLQMNSLKPEDTAVYYCAARVFTLLGYSYEYWGQGTQVTVSS
  polyreactivity (PSR sort gate): low polyreactivity
